These results are taken from patent US20130236458A1 (AbbVie / Abbott, published 2013).

Assay [1] deals with T1, Recombinant Human IL-17 (human, UniProt Q16552 20-155, limits assumed).
T1 sequence (looked up): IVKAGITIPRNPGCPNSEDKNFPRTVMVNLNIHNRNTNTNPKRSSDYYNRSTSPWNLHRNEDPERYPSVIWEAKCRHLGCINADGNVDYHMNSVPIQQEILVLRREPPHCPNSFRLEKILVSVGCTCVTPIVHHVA
Briefly: cell-based or functional assay.

Assay [2] has as its target T2, Recombinant Human IL-13 (human, UniProt P35225 35-146, limits assumed). Briefly: cell-based or functional assay.
Assay [3] deals with T1, Recombinant Human IL-17. In words: SPR (Biacore). The procedure, abridged: (§1)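 Antibodies or DVD-Ig captured on anti-mouse IgG (Fcγ) CM5 surface; antigen injected at 10–200 nM in HBS-EP, pH 7.4, 25 °C, 25 µL/min. kon and koff from global 1:1 Langmuir fit; KD = koff/kon.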
A general note: Surface plasmon resonance follows binding to a sensor surface in real time, without labels.

The target in assay [4] is T2, Recombinant Human IL-13. Briefly: SPR (Biacore). The procedure, abridged:
as §1

T2 sequence (P35225 35-146 limits assumed): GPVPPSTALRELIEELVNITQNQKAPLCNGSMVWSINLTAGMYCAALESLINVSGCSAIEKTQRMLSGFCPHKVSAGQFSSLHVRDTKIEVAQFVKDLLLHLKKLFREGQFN

B1: DVD2191 (bispecific antibody)
VH: EVQLVQSGAEVKKPGSSVKVSCKASGGSFGGYGIGWVRQAPGQGLEWMGGITPFFGFADYAQKFQGRVTITADESTTTAYMELSGLTSDDTAVYYCARDPNEFWNGYYSTHDFDSWGQGTTVTVSSASTKGPEVQLVQSGAEVKKPGASVKVSCKASGYTFTSYWMHWVRQAPGQGLEWIGNINPKGGSNIYNEKFQGRVTMTRDTSISTAYMELSRLRSDDTAVYYCARLDYFGDSFDLWGQGTTVTVSS
VL: EIVLTQSPDFQSVTPKEKVTITCRASQDIGSELHWYQQKPDQPPKLLIKYASHSTSGVPSRFSGSGSGTDFTLTINGLEAEDAGTYYCHQTDSLPYTFGPGTKVDIKRTVAAPDIQMTQSPSSLSASVGDRVTITCRASQGIRNYLNWYQQKPGKAPKLLIYYASNLEVGVPSRFSGSGSGTDYTLTISSLQPEDFATYYCQQDNRFPYTFGGGTKVEIKR
notes: DVD-Ig; also called DVD2191H; DVD2191L
A word on the Kd: it is the concentration at which binding is half-saturated. The koff is the rate constant with which the complex falls apart. The kon is the rate constant with which the complex forms. Consider B1, for which the “N-Terminal VD IL17 Neutralization Assay IC50” value with Recombinant Human IL-17 [1] came out at 13 pM. Besides, the “C-Terminal VD IL13 Neutralization Assay IC50” value with Recombinant Human IL-13 [2] was found to be 165 pM. In the assay with Recombinant Human IL-17 [3], the Kd came out at 4.6 pM, the off-rate (koff) was 1.2e-05 s⁻¹ and the kon came to 2.5e+06 M⁻¹ s⁻¹. Besides, in the assay with Recombinant Human IL-13 [4], the Kd was determined as 170 pM, the off-rate (koff) was 4.4e-05 s⁻¹ and the kon is 260000 M⁻¹ s⁻¹.

B2: DVD2190 (bispecific antibody)
VH: EVQLVQSGAEVKKPGASVKVSCKASGYTFTSYWMHWVRQAPGQGLEWIGNINPKGGSNIYNEKFQGRVTMTRDTSISTAYMELSRLRSDDTAVYYCARLDYFGDSFDLWGQGTTVTVSSASTKGPEVQLVQSGAEVKKPGSSVKVSCKASGGSFGGYGIGWVRQAPGQGLEWMGGITPFFGFADYAQKFQGRVTITADESTTTAYMELSGLTSDDTAVYYCARDPNEFWNGYYSTHDFDSWGQGTTVTVSS
VL: DIQMTQSPSSLSASVGDRVTITCRASQGIRNYLNWYQQKPGKAPKLLIYYASNLEVGVPSRFSGSGSGTDYTLTISSLQPEDFATYYCQQDNRFPYTFGGGTKVEIKRTVAAPEIVLTQSPDFQSVTPKEKVTITCRASQDIGSELHWYQQKPDQPPKLLIKYASHSTSGVPSRFSGSGSGTDFTLTINGLEAEDAGTYYCHQTDSLPYTFGPGTKVDIKR
notes: DVD-Ig; also called DVD2190H; DVD2190L
Take B2: the “C-Terminal VD IL17 Neutralization Assay IC50” value with Recombinant Human IL-17 [1] came out at 61 pM. Moreover, in the assay with Recombinant Human IL-13 [2], the “N-Terminal VD IL13 Neutralization Assay IC50” value was 87 pM. Besides, in the assay with Recombinant Human IL-17 [3], the dissociation constant (Kd) was 38 pM, the dissociation rate constant (koff) was found to be 3.4e-06 s⁻¹ and the kon worked out at 89000 M⁻¹ s⁻¹. In the assay with Recombinant Human IL-13 [4], the Kd amounted to 21 pM, the koff was determined as 5.7e-05 s⁻¹ and the kon turned out to be 2.6e+06 M⁻¹ s⁻¹.

B3: DVD2192 (bispecific antibody)
VH: EVQLVQSGAEVKKPGASVKVSCKASGYTFTSYWMHWVRQAPGQGLEWIGNINPKGGSNIYNEKFQGRVTMTRDTSISTAYMELSRLRSDDTAVYYCARLDYFGDSFDLWGQGTTVTVSSASTKGPEVQLVQSGAEVKKPGSSVKVSCKASGGSFGGYGIGWVRQAPGQGLEWMGGITPFFGFADYAQKFQGRVTITADESTTTAYMELSGLTSDDTAVYYCARDPNEFWNGYYSTHDFDSWGQGTTVTVSS
VL: DIQMTQSPSSLSASVGDRVTITCRASQGIRNYLNWYQQKPGKAPKLLIYYASNLEVGVPSRFSGSGSGTDYTLTISSLQPEDFATYYCQQDNRFPYTFGGGTKVEIKRTVAAPSVFIFPPEIVLTQSPDFQSVTPKEKVTITCRASQDIGSELHWYQQKPDQPPKLLIKYASHSTSGVPSRFSGSGSGTDFTLTINGLEAEDAGTYYCHQTDSLPYTFGPGTKVDIKR
notes: DVD-Ig; also called DVD2192H; DVD2192L
As for B3, the “C-Terminal VD IL17 Neutralization Assay IC50” value with Recombinant Human IL-17 [1] was found to be 15 pM. Besides, in the assay with Recombinant Human IL-13 [2], the “N-Terminal VD IL13 Neutralization Assay IC50” value came to 56 pM. In the assay with Recombinant Human IL-17 [3], the Kd is less than 3.8 pM, the off-rate (koff) is less than 1e-06 s⁻¹ and the kon amounted to 260000 M⁻¹ s⁻¹. Further, in the assay with Recombinant Human IL-13 [4], the Kd amounted to 35 pM, the off-rate (koff) was 5.1e-05 s⁻¹ and the kon came to 1.5e+06 M⁻¹ s⁻¹.
